This note sets out measurements from article PMC7251095.

This test addresses E. coli F1Fo ATP synthase subunit b (cysteine free) (E. coli) (UniProt P0ABA0). The test can be described thus: cryo-EM structure; detergent-solubilized (digitonin) cysteine free E. coli F1Fo ATP synthase at 11 μM with 10 mM MgADP, 22 °C for 30 s before freezing; 300 kV; nine sub-states and a Fo focused map of Sub-state 3A.

Turning to “E. coli F1Fo ATP synthase subunit b (cysteine free) (from UniProt P0ABA0 1-156) (natural protein)”, the stoichiometry N (usually a count of units in the complex or per binding partner) came out at 2.
